Results as given in the supplement of paper PMC9732359.
± gives the uncertainty stated by the source.

Assay: protein stability index of a GFP-peptide fusion (yeast GPS) (PSI 1-4); higher = more stable; sorted into four equal gates, so the index is relative within each strain
In short: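 Sequencing reads from sorted gates were used to score each peptide. The library consisted of tiled 17-residue yeast protein peptides fused downstream of GFP on a Cherry-expressing plasmid, pooled and carried in yeast. Mid-log cultures in leucine-free medium were split into four equal gates by GFP/Cherry ratio, and each gate's plasmids were PCR-amplified and Illumina-sequenced. The protein stability index adds up, over all gates, the read frequency multiplied by the gate number.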

Row | Sequence | protein stability index (doa10∆) | protein stability index (pdr5∆) | protein stability index (san1∆) | protein stability index (ubr1∆)
1 | EDETVKVAQLRQTGPAK [NSL1] | 3.1 ± 0.16 | 2.83 ± 0.17 | 3.08 ± 0.19 | 3.67 ± 0.11
2 | VFYRGMTMQVAVPRDEL [FAS1] | 1.62 ± 0.056 | 1.86 ± 0.066 | 2 ± 0.072 | 1.97 ± 0.12
3 | EDFAPLLAEEEELILPN [PRP8] | 3.14 ± 0.17 | 3.38 ± 0.15 | 2.93 ± 0.066 | 2.78 ± 0.1
4 | FLNSNAVVVGTGNIKHE [COR1] | 1.18 ± 0.085 | 1.36 ± 0.15 | 1.06 ± 0.22 | 1.24 ± 0.12
5 | LEQEYRLILLLNHRNKN [RMP1] | 1.28 ± 0.045 | 1.18 ± 0.05 | 1.19 ± 0.084 | 1.13 ± 0.046
6 | KPELRKKVMPAIVVRQA [RPL23A] | 2.83 ± 0.14 | 2.87 ± 0.086 | 2.61 ± 0.16 | 2.97 ± 0.063
7 | LTGEATANALPLPAVFS [RPL4A] | 2.02 ± 0.052 | 2.36 ± 0.047 | 2.35 ± 0.068 | 2.71 ± 0.038
8 | HKMGVERSSKRLAKKPS [SIR3] | 3.33 ± 0.064 | 3.27 ± 0.067 | 3.24 ± 0.043 | 3.15 ± 0.062
9 | HYNDSQQLRTWKRQISY [SRB8] | 3.25 ± 0.085 | 3.39 ± 0.14 | 3.21 ± 0.09 | 3.32 ± 0.19
10 | TWNGSPFDNSTEEKCKN [YJL039C/NUP192] | 3.1 ± 0.084 | 3.38 ± 0.081 | 3.26 ± 0.066 | 3.33 ± 0.073
11 | QHDKMVDKIFEKVNNNA [SWI1] | 3.19 ± 0.15 | 2.73 ± 0.081 | 2.87 ± 0.067 | 2.99 ± 0.041
12 | NGNLEEEFAYVDPARRQ [MED6] | 3.62 ± 0.21 | 3.44 ± 0.12 | 3.71 ± 0.1 | 2.74 ± 0.085
13 | ALIFIFFAYFIGWCKED [YJL039C/NUP192] | 1.84 ± 0.088 | 1.54 ± 0.062 | 2.03 ± 0.093 | 1.88 ± 0.062
14 | LFAREIAKSQDKKSCSV [DPB4] | 3.33 ± 0.064 | 3.24 ± 0.073 | 3.14 ± 0.067 | 3.22 ± 0.04
15 | HFKKPDITVHGEQIIVH [RRP45] | 1.43 ± 0.14 | 1.37 ± 0.23 |  | 1.4 ± 0.13
16 | LVDILPPDSDSSISVMG [RPT3] | 2.23 ± 0.068 | 2.27 ± 0.063 | 2.24 ± 0.065 | 2.72 ± 0.055
17 | KAPTKLDDPEAVSKDPL [DIS3] | 3.35 ± 0.089 | 3.45 ± 0.12 | 3.17 ± 0.058 | 3.26 ± 0.068
18 | SVGNLEVVKSLYDRPLK [NAS6] | 3.29 ± 0.19 | 2.89 ± 0.2 | 3.12 ± 0.075 | 3.34 ± 0.1
19 | NFPVRQWSIEIVLLDDE [TAF14] | 1.57 ± 0.07 | 1.5 ± 0.055 | 2.37 ± 0.093 | 2.19 ± 0.059
20 | ALREMRKSDQQDVLKGS [POP1] | 3.36 ± 0.17 | 3.56 ± 0.16 | 3.43 ± 0.14 | 3.22 ± 0.11

Row | Sequence | protein stability index (doa10∆) | protein stability index (pdr5∆) | protein stability index (san1∆) | protein stability index (ubr1∆)
21 | VLDSYTPSTNEPYARVS [FAS1] | 2.94 ± 0.054 | 2.76 ± 0.053 | 2.71 ± 0.066 | 3.01 ± 0.044
22 | LRNNLNSLIEEINERSE [YCG1] | 3.13 ± 0.094 | 3.31 ± 0.095 | 2.96 ± 0.075 | 3.01 ± 0.073
23 | SRDKTIKVWTIKGQCLA [ASC1] | 1.63 ± 0.078 | 2.04 ± 0.074 | 2.12 ± 0.11 | 1.83 ± 0.06
24 | LSSGESNEIKVTNDLDT [SIR4] | 2.94 ± 0.16 | 2.97 ± 0.12 | 2.88 ± 0.22 | 2.52 ± 0.08
25 | KMFQDIRLSKILEDDFA [CDC53] | 2.94 ± 0.062 | 3.04 ± 0.088 | 2.62 ± 0.072 | 2.93 ± 0.063
26 | AVSAASVVSMSNDVLKP [SIR2] | 2.5 ± 0.048 | 3.11 ± 0.064 | 2.82 ± 0.063 | 2.75 ± 0.04
27 | IASDGSECIVSIKSKVV [RRP42] | 3.1 ± 0.081 | 3.12 ± 0.075 | 2.7 ± 0.2 | 3.12 ± 0.19
28 | IDRKVEFSLPDLEGRAN [RPT1] | 3.15 ± 0.097 | 3.37 ± 0.1 | 3.08 ± 0.17 | 3.18 ± 0.1
29 | GVQSNGDQFLRYVNLLG [PRE4] | 2.6 ± 0.073 | 2.51 ± 0.05 | 2.17 ± 0.063 | 2.31 ± 0.036
30 | GRILQNLLHSYMEKGTQ [YML103C/NUP188] | 2.66 ± 0.14 | 2.51 ± 0.096 | 1.96 ± 0.086 | 2.51 ± 0.12
31 | QEGMNECPGHFGHIDLA [RPO21] | 3.27 ± 0.21 | 3.25 ± 0.098 | 3.33 ± 0.074 | 3.29 ± 0.09
32 | AQQAQQAQQAQQAQARL [SNF2] | 3.08 ± 0.051 | 3.24 ± 0.048 | 3.13 ± 0.035 | 3.2 ± 0.045
33 | CAERVKIQQQQPGYADL [QCR6] | 3.29 ± 0.13 | 2.99 ± 0.19 |  | 3.09 ± 0.27
34 | PKKFGGKGARSRFQKSY [RPS16A] | 3.22 ± 0.12 | 3.31 ± 0.11 | 3.31 ± 0.13 | 2.93 ± 0.1
35 | ILKKSLMTSHTKGDTSK [RTT102] | 2.6 ± 0.11 | 3.05 ± 0.085 | 2.81 ± 0.085 | 3.05 ± 0.13
36 | HIKFSAGTEANAVSFDT [SRB4] | 1.98 ± 0.068 | 2.16 ± 0.055 | 2.66 ± 0.052 | 2.21 ± 0.04
37 | DSTVNKSITLKGRNNES [YDL088C/ASM4] | 3.28 ± 0.09 | 3.38 ± 0.084 | 3.23 ± 0.058 | 3.21 ± 0.079
38 | SSGDFDDNNNNNNNNNN [GRR1] | 3.11 ± 0.06 | 3.18 ± 0.057 | 3.22 ± 0.063 | 3.04 ± 0.046
39 | ENDQQDNEEWMNDVINT [LIN1] | 3.36 ± 0.076 | 3.24 ± 0.073 | 3.19 ± 0.058 | 2.98 ± 0.071
